Laboratory results: article PMC9536601, “Binding of adenovirus species C hexon to prothrombin and the influence of hexon on vector properties in vitro and in vivo” (PLoS Pathogens, 2022)

Target: T1, human prothrombin (coagulation factor II) (human, UniProt P00734 44-622, gamma-carboxylated glutamate residues in the Gla domain)
T1 construct: prothrombin (FII), human, plasma-derived; also called human FII; FII; source: bought: Haematologic Technologies, Inc. (HCP-0010), plasma-derived
Test: SPR; Biacore T200; about 300 to 5,000 RU of Ad virions immobilised on a CM5 chip, coagulation factors flowed over at four concentrations, 50 uL/min; running buffer 10 mM HEPES, 150 mM NaCl, 1 mM CaCl2, 0.5 mM MgCl2, 0.1% BSA, 0.05% polysorbate 20, pH 7.4; regeneration with 3 mM EDTA; global fit to a 1:1 kinetic interaction model, double referencing
Details: both partners purified

B1: hexon of the E1/E3-deleted Ad5 vector Ad5.0 (wild-type Ad5 capsid, on virions) (natural protein, human adenovirus 5)
chain: ATPSMMPQWSYMHISGQDASEYLSPGLVQFARATETYFSLNNKFRNPTVAPTHDVTTDRSQRLTLRFIPVDREDTAYSYKARFTLAVGDNRVLDMASTYFDIRGVLDRGPTFKPYSGTAYNALAPKGAPNPCEWDEAATALEINLEEEDDDNEDEVDEQAEQQKTHVFGQAPYSGINITKEGIQIGVEGQTPKYADKTFQPEPQIGESQWYETEINHAAGRVLKKTTPMKPCYGSYAKPTNENGGQGILVKQQNGKLESQVEMQFFSTTEATAGNGDNLTPKVVLYSEDVDIETPDTHISYMPTIKEGNSRELMGQQSMPNRPNYIAFRDNFIGLMYYNSTGNMGVLAGQASQLNAVVDLQDRNTELSYQLLLDSIGDRTRYFSMWNQAVDSYDPDVRIIENHGTEDELPNYCFPLGGVINTETLTKVKPKTGQENGWEKDATEFSDKNEIRVGNNFAMEINLNANLWRNFLYSNIALYLPDKLKYSPSNVKISDNPNTYDYMNKRVVAPGLVDCYINLGARWSLDYMDNVNPFNHHRNAGLRYRSMLLGNGRYVPFHIQVPQKFFAIKNLLLLPGSYTYEWNFRKDVNMVLQSSLGNDLRVDGASIKFDSICLYATFFPMAHNTASTLEAMLRNDTNDQSFNDYLSAANMLYPIPANATNVPISIPSRNWAAFRGWAFTRLKTKETPSLGSGYDPYYTYSGSIPYLDGTFYLNHTFKKVAITFDSSVSWPGNDRLLTPNEFEIKRSVDGEGYNVAQCNMTKDWFLVQMLANYNIGYQGFYIPESYKDRMYSFFRNFQPMSRQVVDDTKYKDYQQVGILHQHNNSGFVGYLAPTMREGQAYPANFPYPLIGKTAVDSITQKKFLCDRTLWRIPFSSNFMSMGALTDLGQNLLYANSAHALDMTFEVDPMDEPTLLYVLFEVFDVVRVHRPHRGVIETVYLRTPFSAGNATT
notes: hexon of human adenovirus type 5, unchanged, as it stands in the capsid of the vector; Immobilised as whole vector virions; source: E1/E3-deleted Ad5 vector grown on 293 cells, virions purified by CsCl ultracentrifugation
Kd: 35 nM
koff: 0.00317 s⁻¹
kon: 90500 M⁻¹ s⁻¹
